Legend:
[1] = target: human β-secretase 1 (BACE1), extracellular/catalytic domain (human, UniProt P56817 46-457, limits assumed); test: cell-based or functional assay
[2] = target: human MMP-12 catalytic domain mutant D4 (cdMMP-12 D4) (human); test: cell-based or functional assay
[3] = target: T1, human MMP-12 catalytic domain wild type (cdMMP-12 wt) (human, UniProt P39900 106-263); test: cell-based or functional assay
[4] = target: T2, catalytic domain of human MMP-14 (cdMMP-14) (human, UniProt P50281 114-320); test: bio-layer interferometry
T2 construct: range 114-320; Produced active in E. coli periplasm; biotinylated for BLI/ELISA

[5] = target: T2, catalytic domain of human MMP-14 …; test: FRET peptide inhibition assay
Protocol: (§1) To calculate inhibition constants (KIs), data were fit with the equations for slow tight-binding inhibitors. The inhibition type of the Fabs was determined using the initial velocities of cdMMP-12 D4 as a function of substrate concentration (250-2000 nM) at various Fab concentrations (31-500 nM). The values of Vₘₐₓ and Kₘ were derived from linearization in accordance with the Lineweaver-Burk equation.

[6] = target: T3, human MMP-12 catalytic domain mutant D4 (cdMMP-12 D4) (human); test: FRET peptide (M-2350) inhibition assay
T3 construct: PROSS-designed expression-optimised mutant; Cytoplasmically expressed in E. coli, purified on Ni-NTA; biotinylated for ELISA/BLI; also called cdMMP-12 mutant D4; modified D4
Protocol: as §1

[7] = target: T2, catalytic domain of human MMP-14 …; test: bio-layer interferometry; reference cdMMP-12 wt
[8] = target: T2, catalytic domain of human MMP-14 …; test: FRET peptide inhibition assay; reference cdMMP-12 mutant D4
Protocol: as §1

[9] = target: T3, human MMP-12 catalytic domain mutant D4 …; test: direct ELISA; biotinylated cdMMP on streptavidin plate, Fab titrated, anti-Fab-HRP
Protocol: (§2) On streptavidin coated ELISA plates, 5 μg/mL biotinylated cdMMPs were immobilized and incubated with two-fold serially diluted purified Fabs. Bound Fabs were detected with anti-Fab-HRP (Sigma-Aldrich), and signals were developed by TMB substrate (Thermo Scientific) and measured using a microplate reader (BioTek). […] Bound Fabs were detected using anti-Fab-HRP. For bio-layer interferometry (using ForteBio BLItz), biotinylated cdMMP-12 D4/wt was loaded onto streptavidin biosensors. After washing to establish baselines, 50, 100, or 200 nM of Fabs were associated with immobilized cdMMP-12 D4/wt for 200 sec, then dissociated into 50 mM HEPES, 150 mM NaCl pH 7.5 for 120 sec. Averages of measured kₒₙ and koff values were determined for KD calculations.

[10] = target: T1, human MMP-12 catalytic domain wild type …; test: as above
Protocol: as §2

[11] = target: T3, human MMP-12 catalytic domain mutant D4 …; test: bio-layer interferometry (BLItz); biotinylated cdMMP-12 on streptavidin sensor, 50/100/200 nM Fab
Protocol: as §2

[12] = target: T1, human MMP-12 catalytic domain wild type …; test: as above
Protocol: as §2

[13] = target: T3, human MMP-12 catalytic domain mutant D4 …; test: bio-layer interferometry (ForteBio BLItz), biotinylated cdMMP-12 D4 on streptavidin biosensor, Fab at 50, 100 and 200 nM [panel A, LH6]
Protocol: as §2

[14] = target: T1, human MMP-12 catalytic domain wild type …; test: bio-layer interferometry (ForteBio BLItz), biotinylated cdMMP-12 wt on streptavidin biosensor, Fab at 50, 100 and 200 nM [panel B, LH6]
Protocol: as §2

[15] = target: T3, human MMP-12 catalytic domain mutant D4 …; test: bio-layer interferometry (ForteBio BLItz), biotinylated cdMMP-12 D4 on streptavidin biosensor, Fab at 50, 100 and 200 nM [panel A, LH11]
Protocol: as §2

[16] = target: T1, human MMP-12 catalytic domain wild type …; test: bio-layer interferometry (ForteBio BLItz), biotinylated cdMMP-12 wt on streptavidin biosensor, Fab at 50, 100 and 200 nM [panel B, LH11]
Protocol: as §2

[17] = target: T3, human MMP-12 catalytic domain mutant D4 …; test: bio-layer interferometry (ForteBio BLItz), biotinylated cdMMP-12 D4 on streptavidin biosensor, Fab at 50, 100 and 200 nM [panel A, LG4]
Protocol: as §2

[18] = target: T1, human MMP-12 catalytic domain wild type …; test: bio-layer interferometry (ForteBio BLItz), biotinylated cdMMP-12 wt on streptavidin biosensor, Fab at 50, 100 and 200 nM [panel B, LG4]
Protocol: as §2

T3 sequence (chain, as listed by the source mutant limits assumed): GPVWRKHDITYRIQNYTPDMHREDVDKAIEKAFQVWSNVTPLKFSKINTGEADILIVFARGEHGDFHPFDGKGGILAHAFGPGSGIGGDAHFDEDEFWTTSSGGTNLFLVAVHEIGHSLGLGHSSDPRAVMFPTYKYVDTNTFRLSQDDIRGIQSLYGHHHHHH
T1 sequence (P39900 other isoform, or with tags, fused parts or gaps limits assumed): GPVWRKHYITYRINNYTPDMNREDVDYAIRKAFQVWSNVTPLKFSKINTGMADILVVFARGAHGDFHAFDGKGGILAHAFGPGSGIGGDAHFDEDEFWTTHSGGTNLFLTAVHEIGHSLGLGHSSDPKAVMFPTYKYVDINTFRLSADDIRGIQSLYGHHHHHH
Sequence of human β-secretase 1 (BACE1), extracellular/catalytic domain (P56817 46-457 limits assumed, form in doubt): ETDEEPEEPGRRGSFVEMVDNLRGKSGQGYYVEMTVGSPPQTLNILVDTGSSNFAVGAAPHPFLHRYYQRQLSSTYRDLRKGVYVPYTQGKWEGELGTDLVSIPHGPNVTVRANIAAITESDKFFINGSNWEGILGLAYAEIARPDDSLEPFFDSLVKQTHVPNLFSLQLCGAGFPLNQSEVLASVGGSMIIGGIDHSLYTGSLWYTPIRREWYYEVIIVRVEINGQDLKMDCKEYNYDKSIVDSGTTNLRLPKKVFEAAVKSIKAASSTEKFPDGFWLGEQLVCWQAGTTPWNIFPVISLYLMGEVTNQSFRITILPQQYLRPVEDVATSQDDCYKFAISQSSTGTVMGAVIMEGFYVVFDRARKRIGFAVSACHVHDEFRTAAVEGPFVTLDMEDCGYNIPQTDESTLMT

| Inhibition, Elastin-FITC IC50 [2] | Inhibition, Elastin-FITC IC50 [3] | Kd [4] | Ki [5] | Ki [6] | fold (KD compared with cdMMP-12 wt) [7] | fold (KI compared with cdMMP-12 mutant D4) [8] | EC50 [9] | EC50 [10] | Kd [11] | Kd [12] | Binder | further results |
| --- | --- | --- | --- | --- | --- | --- | --- | --- | --- | --- | --- | --- |
| – | – | – | – | – | – | – | – | – | – | – | anti-BACE1 IgG B2B2 (antibody, V domains shown) VH: EVQLVESGGGLVQPGGSLRLSCAASGFNISSYYMHWVRQAPGKGLEWVASIYSSYGYTYYADSVKGRFTISADTSKNTAYLQMNSLRAEDTAVYYCARYWGYYAWFGSHPWAYGAFDYWGQGTLVTVSS VL: DIQMTQSPSSLSASVGDRVTITCRASQSVSSAVAWYQQKPGKAPKLLIYSASSLYSGVPSRFSGSRSGTDFTLTISSLQPEDFATYYCQQYGYYLITFGQGTKVEIKR | apparent IC50 of Aβ40 production, HEK293 cells expressing APP [1]: 330 nM |
| 61 nM | 1700 nM | 480 nM | 4700 nM | 91 nM | 1.1 fold | 52 fold | 290 nM | ~1000 nM | 510 nM | 430 nM | anti-MMP-12 Fab LH6 (Fab, V domains shown, Fab from a synthetic human Fab library with long CDR-H3s, produced in E. coli periplasm; also called Clone LH6) VH: EVQLVESGGGLVQPGGSLRLSCAASGFNLSYSYMHWVRQAPGKGLEWVASIYPSYGSTYYADSVKGRFTISADTSKNTAYLQMNSLRAEDTAVYYCARDLEESLPKRARTAVSKELESVPYVMDYWGQGTLVTVSS VL: DIQMTQSPSSLSASVGDRVTITCRASQSVSSAVAWYQQKPGKAPKLLIYSASSLYSGVPSRFSGSRSGTDFTLTISSLQPEDFATYYCQQSSHYASPPITFGQGTKVEIKR | koff [13]: 0.011 s⁻¹; kon [13]: 22000 M⁻¹ s⁻¹; koff [14]: 0.0065 s⁻¹; kon [14]: 15000 M⁻¹ s⁻¹ |
| 18 nM | 23 nM | 780 nM | 9600 nM | 75 nM | 10 fold | 130 fold | 100 nM | 140 nM | 38 nM | 75 nM | anti-MMP-12 Fab LH11 (Fab, V domains shown, Fab from a synthetic human Fab library with long CDR-H3s, produced in E. coli periplasm; also called Clone LH11) VH: EVQLVESGGGLVQPGGSLRLSCAASGFNLSYYSMHWVRQAPGKGLEWVAYIYPYYGSTYYADSVKGRFTISADTSKNTAYLQMNSLRAEDTAVYYCARFLLSIGKLFVGDGSILHVWL VL: DIQMTQSPSSLSASVGDRVTITCRASQSVSSAVAWYQQKPGKAPKLLIYSASSLYSGVPSRFSGSRSGTDFTLTISSLQPEDFATYYCQQAYYGYLFTFGQGTKVEIKR | Inhibition, Fibronectin IC50 [3]: 510 nM; koff [15]: 0.0035 s⁻¹; kon [15]: 92000 M⁻¹ s⁻¹; koff [16]: 0.0032 s⁻¹; kon [16]: 43000 M⁻¹ s⁻¹ |
| 210 nM | 350 nM | 640 nM | – | 76 nM | 9 fold | – | 97 nM | 180 nM | 37 nM | 71 nM | anti-MMP-12 Fab LG4 (Fab, V domains shown, Fab from a synthetic human Fab library with long CDR-H3s, produced in E. coli periplasm; also called Clone LG4) VH: EVQLVESGGGLVQPGGSLRLSCAASGFNLYYSYMHWVRQAPGKGLEWVASISSYYGYTSYADSVKGRFTISADTSKNTAYLQMNSLRAEDTAVYYCARSPIVYYELFMFIDMGAQGWKYGMDYWGQGTLVTVSS VL: DIQMTQSPSSLSASVGDRVTITCRASQSVSSAVAWYQQKPGKAPKLLIYSASSLYSGVPSRFSGSRSGTDFTLTISSLQPEDFATYYCQQTFYPFTFGQGTKVEIKR | koff [17]: 0.0041 s⁻¹; kon [17]: 110000 M⁻¹ s⁻¹; koff [18]: 0.0038 s⁻¹; kon [18]: 54000 M⁻¹ s⁻¹ |

From US20200392251A1 (University of California, published 2020)
